{"source": "patent US20210338838A1", "about": "(UNIVERSITY OF UTAH RESEARCH FOUNDATION, published 2021)", "binders": {"B1": {"name": "CFH-Del (CFH of the CFHR3/1 deletion haplotype, V62-Y402-E936) (other)", "chain": "EDCNELPPRRNTEILTGSWSDQTYPEGTQAIYKCRPGYRSLGNVIMVCRKGEWVALNPLRKCQKRPCGHPGDTPFGTFTLTGGNVFEYGVKAVYTCNEGYQLLGEINYRECDTDGWTNDIPICEVVKCLPVTAPENGKIVSSAMEPDREYHFGQAVRFVCNSGYKIEGDEEMHCSDDGFWSKEKPKCVEISCKSPDVINGSPISQKIIYKENERFQYKCNMGYEYSERGDAVCTESGWRPLPSCEEKSCDNPYIPNGDYSPLRIKHRTGDEITYQCRNGFYPATRGNTAKCTSTGWIPAPRCTLKPCDYPDIKHGGLYHENMRRPYFPVAVGKYYSYYCDEHFETPSGSYWDHIHCTQDGWSPAVPCLRKCYFPYLENGYNQNYGRKFVQGKSIDVACHPGYALPKAQTTVTCMENGWSPTPRCIRVKTCSKSSIDIENGFISESQYTYALKEKAKYQCKLGYVTADGETSGSITCGKDGWSAQPTCIKSCDIPVFMNARTKNDFTWFKLNDTLDYECHDGYESNTGSTTGSIVCGYNGWSDLPICYERECELPKIDVHLVPDRKKDQYKVGEVLKFSCKPGFTIVGPNSVQCYHFGLSPDLPICKEQVQSCGPPPELLNGNVKEKTKEEYGHSEVVEYYCNPRFLMKGPNKIQCVDGEWTTLPVCIVEESTCGDIPELEHGWAQLSSPPYYYGDSVEFNCSESFTMIGHRSITCIHGVWTQLPQCVAIDKLKKCKSSNLIILEEHLKNKKEFDHNSNIRYRCRGKEGWIHTVCINGRWDPEVNCSMAQIQLCPPPPQIPNSHNMTTTLNYRDGEKVSVLCQENYLIQEGEEITCKDGRWQSIPLCVEKIPCSQPPQIEHGTINSSRSSQESYAHGTKLSYTCEGGFRISEENETTCYMGKWSSPPQCEGLPCKSPPEISHGVVAHMSDSYQYGEEVTYKCFEGFGIDGPAIAKCLGEKWSHPPSCIKTDCLSLPSFENAIPMGEKKDVYKAGEQVTYTCATYYKMDGASNVTCINSRWTGRPTCRDTSCVNPPTVQNAYIVSRQMSKYPSGERVRYQCRSPYEMFGDEEVMCLNGNWTEPPQCKDSTGKCGPPPPIDNGDITSFPLSVYAPASSVEYQCQNLYQLEGNKRITCRNGQWSEPPKCLHPCVISREIMENYNIALRWTAKQKLYSRTGESVEFVCKRGYRLSSRSHTLRTTCWDGKLEYPTCAKR", "notes": "also called 3,1 Deletion (Del)"}, "B2": {"name": "CFH-Neu (neutral variant of full-length CFH, V62-Y402-D936) (other)", "chain": "B1 chain with E918D", "notes": "also called Neutral (Neu)"}, "B3": {"name": "CFH-V62-H402-E936 (risk variant of full-length CFH) (other)", "chain": "B1 chain with Y384H", "notes": "also called CFH-Risk; CFH-risk protein"}, "B4": {"name": "eCFHT-SK (engineered truncated CFH, I62-Y402, ending in SKSFTL) (other)", "chain": "EDCNELPPRRNTEILTGSWSDQTYPEGTQAIYKCRPGYRSLGNIIMVCRKGEWVALNPLRKCQKRPCGHPGDTPFGTFTLTGGNVFEYGVKAVYTCNEGYQLLGEINYRECDTDGWTNDIPICEVVKCLPVTAPENGKIVSSAMEPDREYHFGQAVRFVCNSGYKIEGDEEMHCSDDGFWSKEKPKCVEISCKSPDVINGSPISQKIIYKENERFQYKCNMGYEYSERGDAVCTESGWRPLPSCEEKSCDNPYIPNGDYSPLRIKHRTGDEITYQCRNGFYPATRGNTAKCTSTGWIPAPRCTLKPCDYPDIKHGGLYHENMRRPYFPVAVGKYYSYYCDEHFETPSGSYWDHIHCTQDGWSPAVPCLRKCYFPYLENGYNQNYGRKFVQGKSIDVACHPGYALPKAQTTVTCMENGWSPTPRCIRVSKSFTL", "notes": "Non-natural variant of human CFHT with SK inserted before the C-terminal SFTL; In the Western blot it was expressed from eCFH/T v4.2 in RPE1 cells; also called protective eCFHT-SK; truncated product of eCFH/T v4.2"}, "B5": {"name": "eCFHT-SE (engineered truncated CFH, I62-Y402, ending in SESFTL) (other)", "chain": "B4 chain with K429E", "notes": "The chain is built from the first 445 residues shared by CFH and CFHT, less the 18-residue signal peptide, plus the printed C-terminal SESFTL; His-tagged and purified from HEK293 cells; also called protective eCFHT-SE; truncated product of eCFH/T v4.3"}, "B6": {"name": "CFHT-Neu/Del (truncated CFH of the neutral and deletion haplotypes, V62-Y402) (other)", "chain": "EDCNELPPRRNTEILTGSWSDQTYPEGTQAIYKCRPGYRSLGNVIMVCRKGEWVALNPLRKCQKRPCGHPGDTPFGTFTLTGGNVFEYGVKAVYTCNEGYQLLGEINYRECDTDGWTNDIPICEVVKCLPVTAPENGKIVSSAMEPDREYHFGQAVRFVCNSGYKIEGDEEMHCSDDGFWSKEKPKCVEISCKSPDVINGSPISQKIIYKENERFQYKCNMGYEYSERGDAVCTESGWRPLPSCEEKSCDNPYIPNGDYSPLRIKHRTGDEITYQCRNGFYPATRGNTAKCTSTGWIPAPRCTLKPCDYPDIKHGGLYHENMRRPYFPVAVGKYYSYYCDEHFETPSGSYWDHIHCTQDGWSPAVPCLRKCYFPYLENGYNQNYGRKFVQGKSIDVACHPGYALPKAQTTVTCMENGWSPTPRCIRVSFTL"}, "B7": {"name": "CFHT-V62-H402 (risk variant of truncated CFH) (other)", "chain": "B6 chain with Y384H", "notes": "also called CFHT-Risk"}}, "key": {"[1]": {"target": "T1, monomeric C-reactive protein (CRP) (UniProt P02741 19-224)", "T1 sequence (looked up)": "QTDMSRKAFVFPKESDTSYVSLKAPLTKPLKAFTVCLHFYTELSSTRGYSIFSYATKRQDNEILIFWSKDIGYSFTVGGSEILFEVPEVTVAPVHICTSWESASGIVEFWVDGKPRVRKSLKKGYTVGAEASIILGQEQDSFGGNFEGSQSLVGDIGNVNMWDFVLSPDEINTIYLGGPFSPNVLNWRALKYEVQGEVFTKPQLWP", "experiment": "relative CRP-binding assay, detection antibody AbCam OX-24 (#Ab112197)"}, "[2]": {"target": "T2, MDA-modified LDL particles", "T2 construct": "Not a plain protein; also called MDA-LDL; MDA adducts", "experiment": "relative MDA-binding assay, percent of CFH-Risk, detection antibody AbCam OX-24 (#Ab112197)"}, "[3]": {"target": "T1, monomeric C-reactive protein (CRP)", "experiment": "relative CRP-binding assay, percent of CFH-Risk, detection antibody AbCam OX-24 (#Ab112197)"}, "[4]": {"target": "T2, MDA-modified LDL particles", "experiment": "relative MDA-binding assay, detection antibody AbCam OX-24 (#Ab112197)"}, "[5]": {"target": "T2, MDA-modified LDL particles", "experiment": "rank of binding affinity among six proteins, plate-based binding assays"}, "[6]": {"target": "T1, monomeric C-reactive protein (CRP)", "experiment": "rank of binding affinity among six proteins, plate-based binding assays"}, "[7]": {"target": "T2, MDA-modified LDL particles", "experiment": "plate-based binding assay, His-tagged recombinant protein from HEK293 cells"}}, "note": "Residue numbers refer to the chain shown, from its start.", "data": [{"binder": "B1", "values": [{"measurement": "Binding Potential", "setting": "[1]", "value": 14}, {"measurement": "% FH-Risk", "setting": "[2]", "value": 145, "unit": "%"}, {"measurement": "% FH-Risk", "setting": "[3]", "value": 972, "unit": "%"}, {"measurement": "Binding Potential", "setting": "[4]", "value": 43}]}, {"binder": "B2", "values": [{"measurement": "Binding Potential", "setting": "[1]", "value": 14}, {"measurement": "% FH-Risk", "setting": "[2]", "value": 130, "unit": "%"}, {"measurement": "% FH-Risk", "setting": "[3]", "value": 956, "unit": "%"}, {"measurement": "Binding Potential", "setting": "[4]", "value": 39}]}, {"binder": "B3", "values": [{"measurement": "Binding Potential", "setting": "[1]", "value": 1}, {"measurement": "% FH-Risk", "setting": "[2]", "value": 100, "unit": "%"}, {"measurement": "% FH-Risk", "setting": "[3]", "value": 100, "unit": "%"}, {"measurement": "Binding Potential", "setting": "[4]", "value": 30}, {"measurement": "Binding Affinity Rank (1 best to 6 worst)", "setting": "[5]", "value": 6, "unit": "rank"}, {"measurement": "Binding Affinity Rank (1 best to 6 worst)", "setting": "[6]", "value": 6, "unit": "rank"}]}, {"binder": "B4", "values": [{"measurement": "Kd", "setting": "[7]", "value": 290, "unit": "nM"}, {"measurement": "Binding Affinity Rank (1 best to 6 worst)", "setting": "[5]", "value": 3, "unit": "rank"}, {"measurement": "Binding Affinity Rank (1 best to 6 worst)", "setting": "[6]", "value": 1, "unit": "rank"}]}, {"binder": "B5", "values": [{"measurement": "Kd", "setting": "[7]", "value": 305, "unit": "nM"}, {"measurement": "Binding Affinity Rank (1 best to 6 worst)", "setting": "[5]", "value": 4, "unit": "rank"}, {"measurement": "Binding Affinity Rank (1 best to 6 worst)", "setting": "[6]", "value": 3, "unit": "rank"}]}, {"binder": "B6", "values": [{"measurement": "Binding Potential", "setting": "[1]", "value": 101}, {"measurement": "% FH-Risk", "setting": "[2]", "value": 94, "unit": "%"}, {"measurement": "% FH-Risk", "setting": "[3]", "value": 6870, "unit": "%"}, {"measurement": "Binding Potential", "setting": "[4]", "value": 28}]}, {"binder": "B7", "values": [{"measurement": "Binding Potential", "setting": "[1]", "value": 2}, {"measurement": "% FH-Risk", "setting": "[2]", "value": 35, "unit": "%"}, {"measurement": "% FH-Risk", "setting": "[3]", "value": 131, "unit": "%"}, {"measurement": "Binding Potential", "setting": "[4]", "value": 10}, {"measurement": "Binding Affinity Rank (1 best to 6 worst)", "setting": "[5]", "value": 5, "unit": "rank"}, {"measurement": "Binding Affinity Rank (1 best to 6 worst)", "setting": "[6]", "value": 5, "unit": "rank"}]}]}
